Values quoted from earlier work in article PMC10584158.

Biological target: IL-6 (Homo sapiens) (UniProt P05231)
Sequence (P05231 30-212): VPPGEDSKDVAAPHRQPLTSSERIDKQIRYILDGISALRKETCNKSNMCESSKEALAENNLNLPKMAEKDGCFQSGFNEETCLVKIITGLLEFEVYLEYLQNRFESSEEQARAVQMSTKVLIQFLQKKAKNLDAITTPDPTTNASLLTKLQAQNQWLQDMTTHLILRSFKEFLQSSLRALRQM

Clazakizumab
Kd: 4 pM
